Five molecules from publication doi:10.1101/595835, “An oligomeric state-dependent switch in FICD regulates AMPylation and deAMPylation of the chaperone BiP” (bioRxiv, 2019) can be followed below.

Data set [1] deals with the molecule itself. Nature of the data set: SEC; analytical SEC, SEC-3 HPLC column, HKMC buffer (50 mM HEPES-KOH pH 7.4, 150 mM KCl, 10 mM MgCl2, 1 mM CaCl2), 25 °C; FICD at 20 µM, or 0.2-50 µM after 16 h at 25 °C (Figure S1D-E); approximate Kd of dimer to monomers from elution peak times.
The target of data set [2] is T1, biotinylated AviTag-haBiP(28-635)^T229A-V461F (Chinese hamster, UniProt G3I8R9 28-635, T229A | V461F, biotin on the AviTag).
T1 construct: Chinese hamster BiP (haBiP), aa 28-635; the assay tells the nucleotide state; also called BiP^T229A-V461F:Apo; BiP:ATP; not shown: GST, N-terminal, cleaved; AviTag, N-terminal, kept
T1 sequence (G3I8R9 28-635 T229A/V461F): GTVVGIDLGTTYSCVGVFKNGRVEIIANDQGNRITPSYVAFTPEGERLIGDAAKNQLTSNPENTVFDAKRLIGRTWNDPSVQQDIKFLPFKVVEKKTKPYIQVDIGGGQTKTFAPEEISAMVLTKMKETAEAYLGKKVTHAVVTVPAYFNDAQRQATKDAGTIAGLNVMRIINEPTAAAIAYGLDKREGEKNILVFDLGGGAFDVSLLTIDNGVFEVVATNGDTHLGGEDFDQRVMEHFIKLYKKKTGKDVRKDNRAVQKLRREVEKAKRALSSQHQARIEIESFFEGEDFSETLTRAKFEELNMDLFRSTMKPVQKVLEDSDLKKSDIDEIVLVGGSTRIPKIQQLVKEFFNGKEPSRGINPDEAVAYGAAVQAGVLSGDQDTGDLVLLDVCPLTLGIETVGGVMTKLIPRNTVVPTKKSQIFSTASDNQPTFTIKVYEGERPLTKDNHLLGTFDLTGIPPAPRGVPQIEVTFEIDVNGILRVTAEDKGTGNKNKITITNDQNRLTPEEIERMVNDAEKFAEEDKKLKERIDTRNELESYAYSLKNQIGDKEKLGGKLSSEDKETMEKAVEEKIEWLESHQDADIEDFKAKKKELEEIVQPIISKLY
Nature of the data set: BLI; biotinylated BiP^T229A-V461F(28-635) immobilised on streptavidin biosensors and pre-saturated with ATP (2 mM); FICD His363Ala variants at 250 nM, without or with nucleotide (ATP 8 mM, ADP 2 mM); HKM plus 0.05% Triton X-100, 30 °C. The note with it: both partners purified.

Data set [3] addresses T2, biotinylated AviTag-haBiP^V461F(19-654), AMPylated (Chinese hamster, UniProt G3I8R9 19-654, V461F, AMP on Thr518 (AMPylation); biotin on the AviTag).
T2 construct: Chinese hamster BiP (haBiP), aa 19-654; also called BiP-AMP; AMPylated BiP; not shown: GST, N-terminal, cleaved; AviTag, N-terminal, kept
Description: BLI; biotinylated AMPylated or unmodified BiP immobilised on streptavidin biosensors; FICD His363Ala variants in solution at 250 nM; HKM plus 0.05% Triton X-100, 30 °C (Figure S2G). The note with it: both partners purified.

Data set [4] concerns the molecule itself. Nature of the data set: AUC; fluorescence-detected sedimentation velocity, Oregon Green-labelled FICD 1.6 µM to 31 pM, 20 °C, 50 mM HEPES-KOH pH 7.4, 150 mM KCl, 10 mM MgCl2, 1 mM CaCl2, 0.3 mM TCEP, 0.1% Tween-20, 0.15 mg/ml BSA; monomer-dimer fit (dimer to monomers).

T2 sequence (G3I8R9 19-654 V461F): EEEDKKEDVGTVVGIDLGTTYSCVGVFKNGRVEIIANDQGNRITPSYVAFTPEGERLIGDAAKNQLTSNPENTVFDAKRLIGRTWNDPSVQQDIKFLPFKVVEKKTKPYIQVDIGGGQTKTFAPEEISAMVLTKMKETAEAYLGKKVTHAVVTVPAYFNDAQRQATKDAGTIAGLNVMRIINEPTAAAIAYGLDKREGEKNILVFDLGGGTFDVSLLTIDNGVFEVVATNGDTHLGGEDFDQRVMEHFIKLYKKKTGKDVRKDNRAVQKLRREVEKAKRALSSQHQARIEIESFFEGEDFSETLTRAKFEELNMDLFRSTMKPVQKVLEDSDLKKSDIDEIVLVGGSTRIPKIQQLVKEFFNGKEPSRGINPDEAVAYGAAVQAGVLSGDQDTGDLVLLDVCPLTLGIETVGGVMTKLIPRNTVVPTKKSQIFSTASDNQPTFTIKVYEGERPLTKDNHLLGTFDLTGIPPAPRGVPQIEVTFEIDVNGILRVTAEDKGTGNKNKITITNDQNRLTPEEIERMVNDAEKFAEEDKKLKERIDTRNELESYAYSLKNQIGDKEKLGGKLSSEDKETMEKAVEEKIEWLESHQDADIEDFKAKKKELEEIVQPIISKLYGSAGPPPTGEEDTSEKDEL

B1: FICD^E242A (aa 104-445) (domain or fragment, human, UniProt Q9BVA6 104-445, looked up)
chain: LEARAALNQALEMKRQGKREKAQKLFMHALKMDPDFVDALTEFGIFSEEDKDIIQADYLYTRALTISPYHEKALVNRDRTLPLVEEIDQRYFSIIDSKVKKVMSIPKGNSALRRVMEETYYHHIYHTVAIEGNTLTLSAIRHILETRYAVPGKSLEEQNEVIGMHAAMKYINTTLVSRIGSVTISDVLEIHRRVLGYVDPVEAGRFRTTQVLVGHHIPPHPQDVEKQMQEFVQWLNSEEAMNLHPVEFAALAHYKLVYIHPFIDGNGRTSRLLMNLILMQAGYPPITIRKEQRSDYYHVLEAANEGDVRPFIRFIAKCTETTLDTLLFATTEYSVALPEAQP
notes: human FICD (HYPE), aa 104-445; also called dimer relay mutant; source: E. coli T7 Express lysY/I^q, purified (Ni-NTA, on-column Ulp1 cleavage, anion exchange, SEC); not shown: His6, N-terminal, cleaved; Smt3, N-terminal, cleaved
For B1, the Kd in data set [1] was less than 400 nM.

B2: FICD^C421S (aa 104-445) (domain or fragment, human, UniProt Q9BVA6 104-445, looked up)
chain: LEARAALNQALEMKRQGKREKAQKLFMHALKMDPDFVDALTEFGIFSEEDKDIIQADYLYTRALTISPYHEKALVNRDRTLPLVEEIDQRYFSIIDSKVKKVMSIPKGNSALRRVMEETYYHHIYHTVAIEGNTLTLSEIRHILETRYAVPGKSLEEQNEVIGMHAAMKYINTTLVSRIGSVTISDVLEIHRRVLGYVDPVEAGRFRTTQVLVGHHIPPHPQDVEKQMQEFVQWLNSEEAMNLHPVEFAALAHYKLVYIHPFIDGNGRTSRLLMNLILMQAGYPPITIRKEQRSDYYHVLEAANEGDVRPFIRFIAKSTETTLDTLLFATTEYSVALPEAQP
notes: human FICD (HYPE), aa 104-445; also called cysteine-free FICD^C421S; UK 2161; source: E. coli, purified by the protocol of the disulphide-linked dimers (Ni-NTA, oxidised glutathione, anion exchange, SEC); not shown: His6, N-terminal, cleaved; Smt3, N-terminal, cleaved
Take B2: the binding result in data set [1] is “binds”.

B3: non-oxidised FICD^A252C-C421S (aa 104-445) (domain or fragment, human, UniProt Q9BVA6 104-445, looked up)
chain: LEARAALNQALEMKRQGKREKAQKLFMHALKMDPDFVDALTEFGIFSEEDKDIIQADYLYTRALTISPYHEKALVNRDRTLPLVEEIDQRYFSIIDSKVKKVMSIPKGNSALRRVMEETYYHHIYHTVAIEGNTLTLSEIRHILETRYCVPGKSLEEQNEVIGMHAAMKYINTTLVSRIGSVTISDVLEIHRRVLGYVDPVEAGRFRTTQVLVGHHIPPHPQDVEKQMQEFVQWLNSEEAMNLHPVEFAALAHYKLVYIHPFIDGNGRTSRLLMNLILMQAGYPPITIRKEQRSDYYHVLEAANEGDVRPFIRFIAKSTETTLDTLLFATTEYSVALPEAQP
notes: human FICD (HYPE), aa 104-445; also called non-disulphide-bonded FICD^A252C-C421S; UK 2219; source: E. coli, purified; separate preparation not subjected to oxidation with glutathione; not shown: His6, N-terminal, cleaved; Smt3, N-terminal, cleaved
Regarding B3, the binding result in data set [1] is “binds”.

B4: FICD^L258D-H363A (aa 104-445) (domain or fragment, human, UniProt Q9BVA6 104-445, looked up)
chain: LEARAALNQALEMKRQGKREKAQKLFMHALKMDPDFVDALTEFGIFSEEDKDIIQADYLYTRALTISPYHEKALVNRDRTLPLVEEIDQRYFSIIDSKVKKVMSIPKGNSALRRVMEETYYHHIYHTVAIEGNTLTLSEIRHILETRYAVPGKSDEEQNEVIGMHAAMKYINTTLVSRIGSVTISDVLEIHRRVLGYVDPVEAGRFRTTQVLVGHHIPPHPQDVEKQMQEFVQWLNSEEAMNLHPVEFAALAHYKLVYIAPFIDGNGRTSRLLMNLILMQAGYPPITIRKEQRSDYYHVLEAANEGDVRPFIRFIAKCTETTLDTLLFATTEYSVALPEAQP
notes: human FICD (HYPE), aa 104-445; also called mFICD^H363A; source: E. coli T7 Express lysY/I^q, purified (Ni-NTA, on-column Ulp1 cleavage, anion exchange, SEC); not shown: His6, N-terminal, cleaved; Smt3, N-terminal, cleaved
For B4, the binding result in data set [2] and in data set [3] was “binds” in each case.

B5: Oregon Green-labelled FICD^NC (domain or fragment, human)
chain: CLEARAALNQALEMKRQGKREKAQKLFMHALKMDPDFVDALTEFGIFSEEDKDIIQADYLYTRALTISPYHEKALVNRDRTLPLVEEIDQRYFSIIDSKVKKVMSIPKGNSALRRVMEETYYHHIYHTVAIEGNTLTLSEIRHILETRYAVPGKSLEEQNEVIGMHAAMKYINTTLVSRIGSVTISDVLEIHRRVLGYVDPVEAGRFRTTQVLVGHHIPPHPQDVEKQMQEFVQWLNSEEAMNLHPVEFAALAHYKLVYIHPFIDGNGRTSRLLMNLILMQAGYPPITIRKEQRSDYYHVLEAANEGDVRPFIRFIAKCTETTLDTLLFATTEYSVALPEAQP
modifications: Oregon Green 488 on the added N-terminal cysteine (labelling efficiency 74%)
notes: N-terminal cysteine added for site-specific labelling, told in words only; human FICD (HYPE), aa 104-445 (purified 'as described above'); also called UK 2339; wild-type (red); source: E. coli, purified (Ni-NTA, anion exchange, SEC), labelled with Oregon Green 488-iodoacetamide; not shown: His6, N-terminal, cleaved; Smt3, N-terminal, cleaved
For B5, the Kd in data set [4] is 1.2 nM.
